In patent US20140193417A1 (LUDWIG INSTITUTE FOR CANCER RESEARCH, published 2014):

Target: T1, sodium-dependent phosphate transport protein 2b (NaPi2b, SLC34A2), human, endogenous (human, UniProt O95436 1-690)
T1 construct: whole, on cells; Naturally expressed, N-glycosylated membrane protein of human cancer cell lines (OVCAR-3, SK-RC-18 and others) and tissues; used on intact cells (MHA, flow cytometry), in cell or tissue lysates (Western blot, immunoprecipitation) and in tissue sections; also called MX35 antigen; NaPi2b/MX35
T1 sequence (looked up): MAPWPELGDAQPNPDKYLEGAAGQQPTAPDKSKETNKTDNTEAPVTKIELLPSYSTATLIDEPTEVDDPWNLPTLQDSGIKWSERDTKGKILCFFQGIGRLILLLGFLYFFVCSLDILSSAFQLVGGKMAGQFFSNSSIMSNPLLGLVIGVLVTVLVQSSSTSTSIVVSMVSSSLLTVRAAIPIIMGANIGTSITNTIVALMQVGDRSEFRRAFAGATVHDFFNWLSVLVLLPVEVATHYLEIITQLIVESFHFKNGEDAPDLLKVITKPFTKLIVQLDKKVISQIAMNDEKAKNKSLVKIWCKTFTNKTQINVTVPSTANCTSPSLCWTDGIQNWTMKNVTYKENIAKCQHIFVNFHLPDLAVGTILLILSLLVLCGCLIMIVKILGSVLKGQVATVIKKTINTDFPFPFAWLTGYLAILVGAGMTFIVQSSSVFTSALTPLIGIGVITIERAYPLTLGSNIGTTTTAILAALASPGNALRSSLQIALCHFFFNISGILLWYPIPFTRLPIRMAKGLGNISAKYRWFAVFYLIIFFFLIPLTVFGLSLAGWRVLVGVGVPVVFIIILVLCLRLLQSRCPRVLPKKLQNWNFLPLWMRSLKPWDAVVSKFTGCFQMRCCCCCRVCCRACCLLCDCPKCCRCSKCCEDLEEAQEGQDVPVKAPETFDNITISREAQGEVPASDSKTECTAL
Assay: flow cytometry on SK-RC-18 cells, 20 ug/ml antibody
Protocol: The binding efficacy of humanized MX35 antibody, synthesized and purified as described above, was compared with the murine version of the MX35 antibody, using fluorescein isothiocyanate—FITC—marker to assess the specific binding to different cells lines in flow cytometry. The cell lines listed in TABLE 4 were trypsinized, adjusted to a concentration of 2.5×10⁵ cells and distributed in 1.5 mL test tubes. After centrifugation the pellet was resuspended in 100 uL of primary antibody (either murine MX35, humanized MX35, hu3S193 or Zenapax®) diluted in the same culture medium used to cultivate the cells in the concentration of 20 μg/ml. In the case of controls “cells only” and FITC-conjugates, the cells were resuspended in 100 μL of medium culture. The mixtures were incubated for 1 h at 4° C. and then washed twice with 200 μL of phosphate buffered saline. The cells were resuspended in 100 μL of secondary antibody-FITC conjugated, either murine or human depending on the MX35 antibody version used. The control “cells only” tube received medium culture only. […] Staining of the cells with the fluorescent probes was measured in a fluid stream in the flow cytometry Guava® ExpressPro (Guava EasyCyte Mini System). For each individual experiment 10,000 events were acquired and counted.

B1: humanized MX35 (huMX35) monoclonal antibody (antibody, V domains shown)
VH: QVQLVQSGAEVVKPGASVKMSCKASGYTFTGYNIHWVKQAPGQGLEWIGAIYPGNGDTSYKQKFRGRATLTADTSTSTVYMELSSLRSEDSAVYYCARGETARATFAYWGQGTLVTVSS
VL: DIQMTQSPSSLSASVGDRVTITCSASQDIGNFLNWYQQKPGKTVKVLIYYTSSLYSGVPSRFSGSGSGTDYTLTISSLQPEDFATYYCQQYSKLPLTFGQGTKLELKR
notes: Produced in Per.C6 cells, protein A purified; also called Human MX35; humanized MX35 antibody
  binding result: binds
